Measurements as given in patent publication US20220144956A1 (published 2022).
Numbering of substitutions follows the chain as printed.

B1: H1.106 L1 XENP34562 (antibody, V domains shown)
VH: QLQVQESGPGLVKPSETLSLTCTVSGGSISNSYFSWGWIRQPPGKGLEWIGSFYYGEKTYYNPSLKSRATISIDTSKSQFSLKLSSVTAADTAVYYCPRGPTMIRGVIDSWGQGTMVTVSS
VL: EIVLTQSPATLSLSPGERATLSCRASQSVRSYLAWYQQKPGQAPRLLIYDASNRATGIPARFSGSGSGTDFTLTISSLEPEDFAVYYCQQRSNWPPTFGQGTKVEIK
B2: H1 L1.2 XENP34565 (antibody, V domains shown)
VH: B1 VH with M116L
VL: B1 VL with A9G
B3: H1.101 L1 XENP34557 (antibody, V domains shown)
VH: B1 VH with I108M, M116L
VL: B1 VL
B4: H1 L1.7 XENP34570 (antibody, V domains shown)
VH: B1 VH with M116L
VL: B1 VL with S28G
B5: H1.99 L1 XENP34555 (antibody, V domains shown)
VH: B1 VH with V107S, M116L
VL: B1 VL
B6: H1.107 L1 XENP34563 (antibody, V domains shown)
VH: B1 VH with M116T
VL: B1 VL
B7: H1.105 L1 XENP34561 (antibody, V domains shown)
VH: B1 VH with S110Y, M116L
VL: B1 VL
B8: H1.84 L1 XENP34540 (antibody, V domains shown)
VH: B1 VH with M103E, M116L
VL: B1 VL
B9: H1.95 L1 XENP34551 (antibody, V domains shown)
VH: B1 VH with R105K, M116L
VL: B1 VL
B10: H1.98 L1 XENP34554 (antibody, V domains shown)
VH: B1 VH with V107A, M116L
VL: B1 VL
B11: H1.100 L1 XENP34556 (antibody, V domains shown)
VH: B1 VH with I108F, M116L
VL: B1 VL
B12: H1 L1.3 XENP34566 (antibody, V domains shown)
VH: B1 VH with M116L
VL: B1 VL with A9P
B13: H1.103 L1 XENP34559 (antibody, V domains shown)
VH: B1 VH with S110L, M116L
VL: B1 VL
B14: H1.102 L1 XENP34558 (antibody, V domains shown)
VH: B1 VH with S110H, M116L
VL: B1 VL
B15: H1.104 L1 XENP34560 (antibody, V domains shown)
VH: B1 VH with S110V, M116L
VL: B1 VL
B16: H1.83 L1 XENP34539 (antibody, V domains shown)
VH: B1 VH with M103A, M116L
VL: B1 VL
B17: H1 L1.5 XENP34568 (antibody, V domains shown)
VH: B1 VH with M116L
VL: B1 VL with A19V
B18: H1 L1.6 XENP34569 (antibody, V domains shown)
VH: B1 VH with M116L
VL: B1 VL with R24G
B19: H1.90 L1 XENP34546 (antibody, V domains shown)
VH: B1 VH with I104N, M116L
VL: B1 VL
B20: H1.85 L1 XENP34541 (antibody, V domains shown)
VH: B1 VH with M103S, M116L
VL: B1 VL
B21: H1 L1.1 XENP34564 (antibody, V domains shown)
VH: B1 VH with M116L
VL: B1 VL with L4M
B22: H1.87 L1 XENP34543 (antibody, V domains shown)
VH: B1 VH with M103Q, M116L
VL: B1 VL
B23: H1 L1.4 XENP34567 (antibody, V domains shown)
VH: B1 VH with M116L
VL: B1 VL with L13V
B24: H1.88 L1 XENP34544 (antibody, V domains shown)
VH: B1 VH with I104A, M116L
VL: B1 VL
B25: H1.91 L1 XENP34547 (antibody, V domains shown)
VH: B1 VH with I104V, M116L
VL: B1 VL
B26: XENP36169 H1.186 L1 (antibody, V domains shown)
VH: B1 VH with N31E, E57G, S78N, P98A, M103T, M116L
VL: B1 VL
B27: XENP36166 H1.183 L1 (antibody, V domains shown)
VH: B1 VH with E57G, S78N, P98A, I108F, M116L
VL: B1 VL
B28: XENP35107 H1.36 L1 (antibody, V domains shown)
VH: B1 VH with G37S, M116L
VL: B1 VL
B29: XENP34288 H1.1 L1 (antibody, V domains shown)
VH: B1 VH with M103V, M116L
VL: B1 VL
B30: XENP36167 H1.184 L1 (antibody, V domains shown)
VH: B1 VH with N31E, E57G, S78N, P98A, M116L
VL: B1 VL
B31: XENP36173 H1.190 L1 (antibody, V domains shown)
VH: B1 VH with N31S, E57G, S78N, P98A, M103T, M116L
VL: B1 VL
B32: XENP36186 H1.203 L1 (antibody, V domains shown)
VH: B1 VH with S32A, E57G, S78N, P98A, M103V, M116L
VL: B1 VL
B33: XENP36183 H1.200 L1 (antibody, V domains shown)
VH: B1 VH with S32A, E57G, S78N, P98A, M116L
VL: B1 VL
B34: XENP36176 H1.193 L1 (antibody, V domains shown)
VH: B1 VH with N31T, E57G, S78N, P98A, M103L, M116L
VL: B1 VL
B35: XENP36174 H1.191 L1 (antibody, V domains shown)
VH: B1 VH with N31S, E57G, S78N, P98A, M103V, M116L
VL: B1 VL
B36: XENP36184 H1.201 L1 (antibody, V domains shown)
VH: B1 VH with S32A, E57G, S78N, P98A, M103L, M116L
VL: B1 VL
B37: XENP36164 H1.181 L1 (antibody, V domains shown)
VH: B1 VH with E57G, S78N, P98A, M116L
VL: B1 VL
B38: XENP35104 H1.29 L1 (antibody, V domains shown)
VH: B1 VH with S35T, M116L
VL: B1 VL
B39: XENP36175 H1.192 L1 (antibody, V domains shown)
VH: B1 VH with N31T, E57G, S78N, P98A, M116L
VL: B1 VL
B40: XENP36168 H1.185 L1 (antibody, V domains shown)
VH: B1 VH with N31E, E57G, S78N, P98A, M103L, M116L
VL: B1 VL
B41: XENP36185 H1.202 L1 (antibody, V domains shown)
VH: B1 VH with S32A, E57G, S78N, P98A, M103T, M116L
VL: B1 VL
B42: XENP35105 H1.30 L1 (antibody, V domains shown)
VH: B1 VH with S35Y, M116L
VL: B1 VL
B43: XENP36179 H1.196 L1 (antibody, V domains shown)
VH: B1 VH with N31Q, E57G, S78N, P98A, M116L
VL: B1 VL
B44: XENP36172 H1.189 L1 (antibody, V domains shown)
VH: B1 VH with N31S, E57G, S78N, P98A, M103L, M116L
VL: B1 VL
B45: XENP36178 H1.195 L1 (antibody, V domains shown)
VH: B1 VH with N31T, E57G, S78N, P98A, M103V, M116L
VL: B1 VL
B46: XENP36177 H1.194 L1 (antibody, V domains shown)
VH: B1 VH with N31T, E57G, S78N, P98A, M103T, M116L
VL: B1 VL
B47: XENP36170 H1.187 L1 (antibody, V domains shown)
VH: B1 VH with N31E, E57G, S78N, P98A, M103V, M116L
VL: B1 VL
B48: XENP36171 H1.188 L1 (antibody, V domains shown)
VH: B1 VH with N31S, E57G, S78N, P98A, M116L
VL: B1 VL

Target: T1, human TGFßRII (antigen of the Octet experiments) (human, UniProt P37173 23-166)
T1 sequence (P37173 23-166): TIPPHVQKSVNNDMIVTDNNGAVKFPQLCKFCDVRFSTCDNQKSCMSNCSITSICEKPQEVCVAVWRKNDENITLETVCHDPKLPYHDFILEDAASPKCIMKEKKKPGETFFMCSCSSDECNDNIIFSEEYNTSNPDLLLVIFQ
Experiment: BLI (Octet)

Row | Kd | Binder
1 | 0.624 nM | B1
2 | 0.361 nM | B2
3 | 0.492 nM | B3
4 | 0.315 nM | B4
5 | 0.431 nM | B5
6 | 0.109 nM | B6
7 | 0.455 nM | B7
8 | 4.16 nM | B8
9 | 2.34 nM | B9
10 | 0.761 nM | B10
11 | 0.898 nM | B11
12 | 0.547 nM | B12
13 | 0.16 nM | B13
14 | 0.139 nM | B14
15 | 0.601 nM | B15
16 | 3.47 nM | B16
17 | 1.3 nM | B17
18 | 2.24 nM | B18
19 | 0.0747 nM | B19
20 | 4 nM | B20
21 | 0.569 nM | B21
22 | 1.58 nM | B22
23 | 0.601 nM | B23
24 | 0.402 nM | B24
25 | 0.512 nM | B25

Target: T1, human TGFßRII (antigen of the Octet …)
Experiment: not given

Row | Kd | Binder
26 | 10.1 nM | B26
27 | 6.15 nM | B27
28 | 2.89 nM | B28
29 | 4.26 nM | B29
30 | 4.34 nM | B30
31 | 9.24 nM | B31
32 | 6.44 nM | B32
33 | 3.02 nM | B33
34 | 7.15 nM | B34
35 | 8.43 nM | B35
36 | 5.27 nM | B36
37 | 2.29 nM | B37
38 | 2.43 nM | B38
39 | 4.38 nM | B39
40 | 7.26 nM | B40
41 | 7.4 nM | B41
42 | 15.4 nM | B42
43 | 3.69 nM | B43
44 | 6.99 nM | B44
45 | 8.42 nM | B45
46 | 9.77 nM | B46
47 | 9.08 nM | B47
48 | 4.19 nM | B48
